Substrate: CC[C@H](C)[C@H](NC(=O)[C@H](CCC(=O)O)NC(=O)CN)C(=O)N[C@H](C(=O)NCC(=O)NCC(=O)N[C@H](C(=O)N[C@@H](CCC(=O)O)C(=O)N[C@@H](CS)C(=O)N[C@@H](CCCCN)C(=O)N1CCC[C@H]1C(=O)N[C@@H](Cc1c[nH]cn1)C(=O)N[C@@H](CO)C(=O)N[C@@H](CCCNC(=N)N)C(=O)N1CCC[C@H]1C(=O)N[C@@H](Cc1ccc(O)cc1)C(=O)N[C@@H](CCSC)C(=O)N[C@@H](C)C(=O)N[C@@H](Cc1ccc(O)cc1)C(=O)N[C@@H](CC(C)C)C(=O)O)[C@@H](C)O)[C@@H](C)CC
Assay: Initial velocity analysis of DPPI with the 20-mer substrate, mass spectrometry
Assay type: biochemical, human
Conditions: other: 20-mer as DPPI substrate, about 2 nM DPPI, pH 7.0, about 27° C.
Procedure: FIG. 1. Initial velocity analysis for DPP1 kinetic constant in reaction with a 20-mer substrate (A) and a dipeptide substrate (B). (A) About 2 nM of DPPI was used in the reaction with the 20-mer substrate of […] (SEQ ID NO:1) and the reaction was monitored using a mass spectrometry system. (B) About 0.4 nM of DPP1 was used in the reaction with the dipeptide substrate of GR-α-methylcoumarin and the reaction was monitored using a rate-based format monitoring fluorescence at EM=460 nm and EX=380 nm. Initial rates are taken from kinetic data where less than 7% substrate turnover was achieved.
Once the rate of the substrate turnover under the initial velocity condition, the kinetic constants for DPPI and the peptide substrate are calculated using the following formula (I): Y=VMAX((X+Et+KM)−((((Et+X+KM)^2)−(4XEt))^0.5))/(2Et) wherein • Y is concentration of substrate turnover • X is substrate concentration • Et is DPPI concentration • KM is substrate concentration at ½ VMAX • VMAX is substrate turnover at substrate saturation
About 2 nM of DPPI was incubated with about 0.5, 1, 2, 4, 8, 16, 32, 64, 90, 128, 150 μM of the 20-mer substrate in the reaction buffer of 50 mM HEPES (pH 7.0), 100 mM NaCl, 0.005% Tween-20, and 2 mM of DTT or GSH. […]

B1: dipeptidyl peptidase I (DPPI) (Homo sapiens) (protein)
chain 1: not shown
chain 2: LPTSWDWRNVHGINFVSPVRNQASCGSCYSFASMGMLEARIRILTNNSQTPILSPQEVVSCSQYAQGCEGGFPYLIAGKYAQDFGLVEEACFPYTGTDSPCKMKEDCFRYYSSEYHYVGGFYGGCNEALMKLELVHHGPMAVAFEVYDDFLHYKKGIYHHTGLR
chain 3: not shown
notes: made in house; host or cells: Hi5 insect cells (baculovirus)
Km: 62 µM

From patent US8313920B2, “High-throughput assay for evaluating dipeptidyl peptidase I activity” (Janssen Research & Development, LLC, priority 2008, dated 2012)
